Measurements published in patent publication US10925971B2, “Methods of treating PRLR positive breast cancer” (Regeneron Pharmaceuticals, Inc., priority 2016, dated 2021).

Target: T1, hPRLR-mmH (SEQ ID NO:406) (Homo sapiens, UniProt P16471)
T1 construct: this experiment was conducted with a truncated form of PRLR (i.e., hPRLR-mmH)
Assay: Epitope mapping by hydrogen/deuterium exchange with MALDI-TOF MS
Type: binding
Experimental: Experiments were conducted to determine the amino acid residues of PRLR with which H1H6958N2 interacts. For this purpose hydrogen/deuterium (H/D) exchange epitope mapping was carried out. A general description of the H/D exchange method is set forth in e.g., Ehring (1999) Analytical Biochemistry 267(2):252-259; and Engen and Smith (2001) Anal. Chem. 73:256A-265A.
To map the binding epitope(s) of antibody H1H6958N2 on hPRLR via H/D exchange, a construct comprising a recombinant extracellular domain of hPRLR with a C-terminal myc-myc-hexahistidine tag (hPRLR-mmH; SEQ ID NO: SEQ ID NO:406) was buffer exchanged to PBS with a final concentration of 8 mg/mL, and antibody H1H6958N2 was covalently attached to N-hydroxysuccinimide (NHS) agarose beads (GE Lifescience)
In the ‘on-solution/off-beads’ (on-exchange in solution followed by off-exchange on beads) experiment, the hPRLR was deuterated for 5 min or 10 min in PBS buffer prepared with D2O, and then bound to H1H6958N2 beads through a 2 min incubation. The hPRLR-bound beads were washed with PBS aqueous buffer (prepared with H2O) and incubated PBS buffer for half of the on-exchange time. After the off-exchange, the bound hPRLR was eluted from beads with an ice-cold low pH TFA solution. The eluted hPRLR was then digested with immobilized pepsin (Thermo Scientific) for 5 min. The resulting peptides were desalted using ZipTip® chromatographic pipette tips and immediately analyzed by UltrafleXtreme matrix assisted laser desorption ionization time of flight (MALDI-TOF)-TOF mass spectrometry (MS).
In the ‘on-beads/off-beads’ (on-exchange on beads followed by off-exchange on beads) experiment, hPRLR was first bound to H1H6958N2 beads and then incubated for 5 min or 10 min in D2O for on-exchange. The following steps (off-exchange, pepsin digestion, and MS analysis) were carried out as described for the ‘on-solution/off-beads’ procedure. The centroid values or average mass-to-charge ratios (m/z) of all the detected peptides were calculated and compared between these two sets of experiments.
The results are summarized in Table 29 which provides a comparison of the centroid m/z values for all the detected peptides identified by liquid chromatography and MS following the H/D exchange and peptic digest procedure described above. For purposes of the present Example, a positive difference (A) of at least 0.20 m/z in both experiments indicates amino acids protected by antibody binding. Segments meeting this criterion are indicated by bold text and an asterisk (*) in Table 29. [Note that, although this experiment was conducted with a truncated form of PRLR (i.e., hPRLR-mmH; SEQ ID NO: 406), residue numbering in the far left column of Table 29 has been adjusted to correspond to the amino acid sequence of the full-length PRLR protein represented by SEQ ID NO: 404.]

[1] = hPRLR peptide residues 168-180 of SEQ ID NO: 404, Experiment II 10 min on-/5 min off-exchange
[2] = hPRLR peptide residues 169-180 of SEQ ID NO: 404, Experiment I 5 min on-/2.5 min off-exchange
[3] = hPRLR peptide residues 169-180 of SEQ ID NO: 404, Experiment II 10 min on-/5 min off-exchange
[4] = hPRLR peptide residues 170-179 of SEQ ID NO: 404, Experiment I 5 min on-/2.5 min off-exchange
[5] = hPRLR peptide residues 170-179 of SEQ ID NO: 404, Experiment II 10 min on-/5 min off-exchange
[6] = hPRLR peptide residues 170-180 of SEQ ID NO: 404, Experiment I 5 min on-/2.5 min off-exchange
[7] = hPRLR peptide residues 170-180 of SEQ ID NO: 404, Experiment II 10 min on-/5 min off-exchange
[8] = hPRLR peptide residues 191-205 of SEQ ID NO: 404, Experiment I 5 min on-/2.5 min off-exchange
[9] = hPRLR peptide residues 191-205 of SEQ ID NO: 404, Experiment II 10 min on-/5 min off-exchange
[10] = hPRLR peptide residues 192-202 of SEQ ID NO: 404, Experiment I 5 min on-/2.5 min off-exchange
[11] = hPRLR peptide residues 192-202 of SEQ ID NO: 404, Experiment II 10 min on-/5 min off-exchange
[12] = hPRLR peptide residues 192-205 of SEQ ID NO: 404, Experiment I 5 min on-/2.5 min off-exchange
[13] = hPRLR peptide residues 192-205 of SEQ ID NO: 404, Experiment II 10 min on-/5 min off-exchange
[14] = hPRLR peptide residues 206-215 of SEQ ID NO: 404, Experiment I 5 min on-/2.5 min off-exchange
[15] = hPRLR peptide residues 206-215 of SEQ ID NO: 404, Experiment II 10 min on-/5 min off-exchange
[16] = hPRLR peptide residues 206-217 of SEQ ID NO: 404, Experiment I 5 min on-/2.5 min off-exchange
[17] = hPRLR peptide residues 206-217 of SEQ ID NO: 404, Experiment II 10 min on-/5 min off-exchange
[18] = hPRLR peptide residues 206-222 of SEQ ID NO: 404, Experiment I 5 min on-/2.5 min off-exchange
[19] = hPRLR peptide residues 206-222 of SEQ ID NO: 404, Experiment II 10 min on-/5 min off-exchange
[20] = hPRLR peptide residues 236-249 of SEQ ID NO: 404, Experiment I 5 min on-/2.5 min off-exchange
[21] = hPRLR peptide residues 236-249 of SEQ ID NO: 404, Experiment II 10 min on-/5 min off-exchange
[22] = hPRLR peptide residues 238-261 of SEQ ID NO: 404, Experiment I 5 min on-/2.5 min off-exchange
[23] = hPRLR peptide residues 238-261 of SEQ ID NO: 404, Experiment II 10 min on-/5 min off-exchange
[24] = hPRLR peptide residues 241-261 of SEQ ID NO: 404, Experiment I 5 min on-/2.5 min off-exchange
[25] = hPRLR peptide residues 241-261 of SEQ ID NO: 404, Experiment II 10 min on-/5 min off-exchange
[26] = hPRLR peptide residues 250-261 of SEQ ID NO: 404, Experiment I 5 min on-/2.5 min off-exchange
[27] = hPRLR peptide residues 250-261 of SEQ ID NO: 404, Experiment II 10 min on-/5 min off-exchange

T1 sequence (P16471 with tags, fused parts or gaps): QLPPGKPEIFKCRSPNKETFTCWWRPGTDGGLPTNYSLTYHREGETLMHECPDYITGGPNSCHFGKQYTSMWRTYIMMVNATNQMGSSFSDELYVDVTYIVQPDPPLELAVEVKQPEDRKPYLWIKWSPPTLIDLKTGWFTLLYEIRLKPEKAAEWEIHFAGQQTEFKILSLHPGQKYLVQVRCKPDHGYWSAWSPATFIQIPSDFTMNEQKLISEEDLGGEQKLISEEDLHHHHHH

B1: H1H6958N2: anti-PRLR antibody, receptor blocking, human IgG1 Fc form of H2M6958N2 of Table 1; HCVR/LCVR SEQ ID NOs 290/298 (antibody, V domains shown)
VH: QVQLVESGGGVVQPGRSLRLSCGASGFTFRNYGMQWVRQGPGKGLEWVTLISFDGNDKYYADSVKGRFTISRDNSKNTLFLQMNSLRTEDTAVYYCARGGDFDYWGQGTLVTVSS
VL: DIQMTQSPSSLSASVGDRVTITCRASQDIRKDLGWYQQKPGKAPKRLIYAASSLHSGVPSRFSGSGSGTEFTLTISSLQPEDFATYYCLQHNSYPMYTFGQGTKLEIK
Δ (centroid m/z difference) (hPRLR peptide residues 168-180 of SEQ ID NO: 404, Experiment I 5 min on-/2.5 min off-exchange): −0.06 m/z | centroid m/z, on-beads/off-beads [1]: 1633.64 m/z | centroid m/z, on-solution/off beads [1]: 1633.71 m/z | Δ (centroid m/z difference) [1]: 0.08 m/z | centroid m/z, on-beads/off-beads [2]: 1469.86 m/z | centroid m/z, on-solution/off beads [2]: 1469.67 m/z | Δ (centroid m/z difference) [2]: −0.19 m/z | centroid m/z, on-beads/off-beads [3]: 1469.67 m/z | centroid m/z, on-solution/off beads [3]: 1469.71 m/z | Δ (centroid m/z difference) [3]: 0.04 m/z | centroid m/z, on-beads/off-beads [4]: 1155.35 m/z | centroid m/z, on-solution/off beads [4]: 1155.40 m/z | Δ (centroid m/z difference) [4]: 0.05 m/z | centroid m/z, on-beads/off-beads [5]: 1155.39 m/z | centroid m/z, on-solution/off beads [5]: 1155.40 m/z | Δ (centroid m/z difference) [5]: 0.01 m/z | centroid m/z, on-beads/off-beads [6]: 1341.66 m/z | centroid m/z, on-solution/off beads [6]: 1341.62 m/z | Δ (centroid m/z difference) [6]: −0.04 m/z | centroid m/z, on-beads/off-beads [7]: 1341.34 m/z | centroid m/z, on-solution/off beads [7]: 1341.49 m/z | Δ (centroid m/z difference) [7]: 0.15 m/z | centroid m/z, on-beads/off-beads [8]: 1772.03 m/z | centroid m/z, on-solution/off beads [8]: 1772.03 m/z | Δ (centroid m/z difference) [8]: −0.01 m/z | centroid m/z, on-beads/off-beads [9]: 1772.28 m/z | centroid m/z, on-solution/off beads [9]: 1772.15 m/z | Δ (centroid m/z difference) [9]: −0.13 m/z | centroid m/z, on-beads/off-beads [10]: 1284.39 m/z | centroid m/z, on-solution/off beads [10]: 1284.36 m/z | Δ (centroid m/z difference) [10]: −0.03 m/z | centroid m/z, on-beads/off-beads [11]: 1284.43 m/z | centroid m/z, on-solution/off beads [11]: 1284.32 m/z | Δ (centroid m/z difference) [11]: −0.11 m/z | centroid m/z, on-beads/off-beads [12]: 1624.98 m/z | centroid m/z, on-solution/off beads [12]: 1624.94 m/z | Δ (centroid m/z difference) [12]: −0.04 m/z | centroid m/z, on-beads/off-beads [13]: 1625.17 m/z | centroid m/z, on-solution/off beads [13]: 1625.08 m/z | Δ (centroid m/z difference) [13]: −0.10 m/z | centroid m/z, on-beads/off-beads [14]: 1261.33 m/z | centroid m/z, on-solution/off beads [14]: 1261.44 m/z | Δ (centroid m/z difference) [14]: 0.11 m/z | centroid m/z, on-beads/off-beads [15]: 1261.46 m/z | centroid m/z, on-solution/off beads [15]: 1261.24 m/z | Δ (centroid m/z difference) [15]: −0.22 m/z | centroid m/z, on-beads/off-beads [16]: 1419.65 m/z | centroid m/z, on-solution/off beads [16]: 1419.64 m/z | Δ (centroid m/z difference) [16]: −0.01 m/z | centroid m/z, on-beads/off-beads [17]: 1419.45 m/z | centroid m/z, on-solution/off beads [17]: 1419.48 m/z | Δ (centroid m/z difference) [17]: 0.02 m/z | centroid m/z, on-beads/off-beads [18]: 1962.39 m/z | centroid m/z, on-solution/off beads [18]: 1962.58 m/z | centroid m/z, on-beads/off-beads [19]: 1962.63 m/z | centroid m/z, on-solution/off beads [19]: 1962.52 m/z | Δ (centroid m/z difference) [19]: −0.10 m/z | centroid m/z, on-beads/off-beads [20]: 1560.76 m/z | centroid m/z, on-solution/off beads [20]: 1560.81 m/z | Δ (centroid m/z difference) [20]: 0.05 m/z | centroid m/z, on-beads/off-beads [21]: 1560.83 m/z | centroid m/z, on-solution/off beads [21]: 1560.81 m/z | Δ (centroid m/z difference) [21]: −0.01 m/z | centroid m/z, on-beads/off-beads [22]: 2827.99 m/z | centroid m/z, on-solution/off beads [22]: 2828.15 m/z | Δ (centroid m/z difference) [22]: 0.16 m/z | centroid m/z, on-beads/off-beads [23]: 2828.17 m/z | centroid m/z, on-solution/off beads [23]: 2827.99 m/z | Δ (centroid m/z difference) [23]: −0.18 m/z | centroid m/z, on-beads/off-beads [24]: 2498.74 m/z | centroid m/z, on-solution/off beads [24]: 2498.70 m/z | Δ (centroid m/z difference) [24]: −0.04 m/z | centroid m/z, on-beads/off-beads [25]: 2498.88 m/z | centroid m/z, on-solution/off beads [25]: 2498.68 m/z | Δ (centroid m/z difference) [25]: −0.20 m/z | centroid m/z, on-beads/off-beads [26]: 1528.75 m/z | centroid m/z, on-solution/off beads [26]: 1528.68 m/z | Δ (centroid m/z difference) [26]: −0.06 m/z | centroid m/z, on-beads/off-beads [27]: 1528.71 m/z | centroid m/z, on-solution/off beads [27]: 1528.64 m/z | Δ (centroid m/z difference) [27]: −0.07 m/z
